Results published in paper PMC4383860, “Crystal structure of human persulfide dioxygenase: structural basis of ethylmalonic encephalopathy” (Human Molecular Genetics, 2015).

Legend:
[1] = target: the molecule itself; experiment: native MS + SEC-MALS; dimer to monomer ratio told for both methods together; self-association, dimer
[2] = target: the molecule itself; experiment: SEC-MALS; printed as MALS (multi-angle laser light scattering) of hETHE1 after purification, two peaks; self-association
[3] = target: the molecule itself; experiment: native MS; non-denaturing electrospray soft-ionization MS; 15 µM hETHE1 in 15 mM ammonium acetate buffer (pH 7.5); cone voltage 80 V; self-association, dimer

B1: human ethylmalonic encephalopathy protein 1 (hETHE1), lacking its 20 residue N-terminal mitochondrial targeting sequence (enzyme, UniProt O95571 21-254, looked up)
chain: APILLRQMFEPVSCTFTYLLGDRESREAVLIDPVLETAPRDAQLIKELGLRLLYAVNTHCHADHITGSGLLRSLLPGCQSVISRLSGAQADLHIEDGDSIRFGRFALETRASPGHTPGCVTFVLNDHSMAFTGDALLIRGCGRTDFQQGCAKTLYHSVHEKIFTLPGDCLIYPAHDYHGFTVSTVEEERTLNPRLTLSCEEFVKIMGNLNLPKPQQIDFAVPANMRCGVQTPTA
modifications: Cys247 refined as cysteinyl sulfinic acid (CSD247) in the crystal; +30 Da seen only in the dimer by non-denaturing mass spectrometry
notes: the start at residue 21 is worked out from that statement; Printed masses: monomer 26 116 Da, dimer 52 232 Da; also called human persulfide dioxygenase; sulphur dioxygenase; not shown: His6, N-terminal, cleaved
dimer to monomer ratio [1]: ~10 | stoichiometry N [2]: 4 | stoichiometry N [3]: 2
